# Measured values: US20230312722A1 (NONA BIOSCIENCES SUZHOU, published 2023)
# Read-outs that look alike come from different tables or passages of the source.
# T1: human B7H4 on the cell surface (human, UniProt Q7Z7D3 25-282)
# T1 construct: whole, on cells; also called CHOK1/hu B7H4; B7H4 on SK-BR-3
# T1 sequence (looked up): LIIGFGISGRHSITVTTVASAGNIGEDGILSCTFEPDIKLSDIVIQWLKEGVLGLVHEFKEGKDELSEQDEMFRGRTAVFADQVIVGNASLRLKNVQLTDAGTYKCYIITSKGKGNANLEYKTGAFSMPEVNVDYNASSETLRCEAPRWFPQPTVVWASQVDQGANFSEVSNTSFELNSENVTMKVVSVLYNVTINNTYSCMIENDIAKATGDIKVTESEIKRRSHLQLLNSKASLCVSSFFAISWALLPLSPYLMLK
# T2: Human B7H4 (his tag), Sino Biological #10738-H08H (human, UniProt Q7Z7D3 25-259)
# T2 construct: extracellular domain; Bought protein; also called hB7H4-ECD-his
# T2 sequence (looked up): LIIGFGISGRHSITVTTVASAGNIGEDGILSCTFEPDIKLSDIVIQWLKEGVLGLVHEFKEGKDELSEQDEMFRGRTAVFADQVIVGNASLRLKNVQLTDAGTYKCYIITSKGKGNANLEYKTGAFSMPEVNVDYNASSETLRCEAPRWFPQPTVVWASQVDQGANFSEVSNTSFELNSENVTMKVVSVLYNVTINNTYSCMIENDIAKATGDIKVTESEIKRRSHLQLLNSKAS
# T3: B7-H4 (Acro Biosystems, #B74-H82E2) (UniProt Q7Z7D3 29-258)
# T3 construct: Bought protein; also called B7-H4 captured on SA sensor
# T3 sequence (looked up): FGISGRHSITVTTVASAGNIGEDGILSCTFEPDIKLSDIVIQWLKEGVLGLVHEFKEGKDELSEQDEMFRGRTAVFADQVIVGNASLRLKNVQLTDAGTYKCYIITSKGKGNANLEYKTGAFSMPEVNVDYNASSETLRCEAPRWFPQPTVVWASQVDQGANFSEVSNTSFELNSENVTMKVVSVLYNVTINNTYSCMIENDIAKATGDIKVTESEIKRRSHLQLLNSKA
# B1: PR002405 (antibody, human IgG1, kappa, V domains shown)
# VH: QVQLVESGGGVVQPGRSLRLSCAASGFTFRSFGMHWVRQAPGKGLEWVAVISYEGSNEYYADSVKGRFIISRDNSKDTLYLQMNSLRAGDTAVYYCAKGGGLRWYFAYWGQGTLVTVSS
# VL: EIVMTQSPATLSVSPGERATLSCRASQSISSNLGWYQQKPGQAPRLLIYGASTRATGIPARFSGSGSGTEFTLTISSLQSEDFAVYYCQQYQSWPPLTFGGGTKVEIKR
# notes: variant of PR001476 (H: D54E); also called PR002405 supernatant
# B2: PR001924 (antibody, V domains shown)
# VH: EVQLLESGGGLVQPGGSLRLSCAASGFTFSTYAMNWVRQAPGKGLEWVSRIRSKYNNYATYYADSVKDRFTISRDDSKSTLYLQMNSLRAEDTAVYYCVRHGNFGNSYVSWFAYWGQGTLVTVSS
# VL: QAVVTQEPSLTVSPGGTVTLTCRSSTGAVTTSNYANWVQQKPGQAPRGLIGGTNKRAPWTPARFSGSLLGDKAALTLLGAQPEDEAEYFCALWYSNLWVFGGGTKLTVLG
# notes: also called PR001924 (αCD3 IgG)
# B3: Control antibody 2 (PR002962) (antibody, human IgG1, kappa, V domains shown)
# VH: QLQLQESGPGLVKPSETLSLTCTVSGGSIKSGSYYWGWIRQPPGKGLEWIGNIYYSGSTYYNPSLRSRVTISVDTSKNQFSLKLSSVTAADTAVYYCAREGSYPNQFDPWGQGTLVTVSS
# VL: EIVMTQSPATLSVSPGERATLSCRASQSVSSNLAWYQQKPGQAPRLLIYGASTRATGIPARFSGSGSGTEFTLTISSLQSEDFAVYYCQQYHSFPFTFGGGTKVEIKR
# notes: Anti-B7H4 IgG1 control antibody from WO2019040780A1 (FivePrime), Fc mutated on the basis of PR002961 to enhance ADCC
# B4: PR002994 (bispecific antibody, human IgG1, kappa, lambda, L234A L235A)
# chain 1: EVQLLESGGGLVQPGGSLRLSCAASGFTFSTYAMNWVRQAPGKGLEWVSRIRSKYNNYATYYADSVKDRFTISRDDSKSTLYLQMNSLRAEDTAVYYCVRHGNFGNSYVSWFAYWGQGTLVTVSSASTKGPSVFPLAPSSKSTSGGTAALGCLVKDYFPEPVTVSWNSGALTSGVHTFPAVLQSSGLYSLSSVVTVPSSSLGTQTYICNVNHKPSNTKVDKKVEPKSC
# chain 2: not shown
# heavy: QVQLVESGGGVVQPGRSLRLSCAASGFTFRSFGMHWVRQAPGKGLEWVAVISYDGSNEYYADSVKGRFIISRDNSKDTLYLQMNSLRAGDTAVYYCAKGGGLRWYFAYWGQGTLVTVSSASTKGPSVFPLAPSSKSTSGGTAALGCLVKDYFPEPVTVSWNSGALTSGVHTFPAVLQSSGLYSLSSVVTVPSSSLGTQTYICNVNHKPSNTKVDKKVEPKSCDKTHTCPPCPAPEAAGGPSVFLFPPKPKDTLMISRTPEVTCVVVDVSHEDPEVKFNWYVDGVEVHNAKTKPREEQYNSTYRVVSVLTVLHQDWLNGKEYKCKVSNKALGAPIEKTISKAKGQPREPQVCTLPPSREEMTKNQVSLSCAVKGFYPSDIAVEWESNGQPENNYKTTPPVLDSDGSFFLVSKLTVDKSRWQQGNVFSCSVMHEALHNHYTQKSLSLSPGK
# light: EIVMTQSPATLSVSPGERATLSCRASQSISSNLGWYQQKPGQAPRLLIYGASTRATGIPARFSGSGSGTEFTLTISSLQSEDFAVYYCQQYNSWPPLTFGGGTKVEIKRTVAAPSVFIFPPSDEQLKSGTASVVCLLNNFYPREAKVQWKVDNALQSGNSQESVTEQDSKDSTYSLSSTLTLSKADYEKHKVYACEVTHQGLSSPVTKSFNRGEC
# notes: B7H4 x CD3, 2+1 asymmetric structure (structure 6): CD3 end from PR001924, two B7H4 Fabs from PR001476
# What was measured:
# [1] = molecular target: T1, human B7H4 on the cell surface; assay: FACS on SK-BR-3 cells, expression supernatant at 1 X and 10X
# CD3 on human T cells [2] = molecular target: T4, CD3 on human T cells (human, UniProt P07766 23-207; P04234 22-171; P09693 23-182); assay: FACS on human T cells
# Protocol: (§1) SK-BR-3 cells were digested. T cells were isolated using the human T cell isolation kit (Miltenyi, #130-096-535) as described in the method of the instruction, and resuspended with PBS containing 2% BSA. The cell density was adjusted to 1×10⁶ cells/mL. The cells were seeded in a 96-well V-bottom plate (Corning, #3894) at 100 μL/well, followed by the addition of test antibodies diluted in a 3-fold gradient at a concentration that was 2 times the final concentration, each at 100 μL/well. The cells were incubated at 4° C. for 2 h away from light. Thereafter, the cells in each well were rinsed twice with 100 μL of pre-cooled PBS containing 2% BSA, and centrifuged at 500 g at 4° C. for 5 min, and then the supernatant was discarded. Then each well was added with 100 μL of fluorescent secondary antibody (Alexa Fluor 488-conjugated AffiniPure Goat Anti-Human IgG, Fcγ Fragment Specific, Jackson, #109-545-098, diluted in a 1:500 ratio), and the plate was incubated away from light at 4° C. for 1 h. The cells in each well were washed twice with 100 μL of pre-cooled PBS containing 2% BSA, and centrifuged at 500 g at 4° C. for 5 minutes, and then the supernatant was discarded. Finally, the cells in each well were resuspended with 200 μL of pre-cooled PBS containing 2% BSA, and the fluorescence signal values were read using an ACEA Novocyte3000 flow cytometer.
# CD3 on human T cells [3] = molecular target: T4, CD3 on human T cells; assay: FACS on human T cells; remark: listed apart in the source
# Protocol: as §1
# CD3 on human T cells [4] = molecular target: T4, CD3 on human T cells; assay: FACS on human T cells; remark: listed apart in the source
# Protocol: as §1
# CD3 on human T cells [5] = molecular target: T4, CD3 on human T cells; assay: FACS on human T cells; remark: listed apart in the source
# Protocol: as §1
# [6] = molecular target: T2, Human B7H4 (his tag), Sino Biological …; assay: SPR (Biacore T200), antibody captured on Protein A, B7H4-his as analyte, 1:1 fit
# Protocol: 10×HBS-EP+ (GE Healthcare, #BR-1006-69) was diluted 10-fold and then taken as an experimental buffer. The flow rate was set at 10 μL/min, and Protein A was coupled to 4 channels of a chip CM5 (GE Healthcare, #BR-1005-30) through the following procedures: 1) the injection time was set to 800 s, and a fresh mixture of 50 mM NHS and 200 mM EDC was injected into the 4 channels in a volume ratio of 1:1; 2) Protein A was diluted to 20 μg/mL with sodium acetate (GE Healthcare, #BR-1003-50) at pH 4.5 and injected into each channel for 800 s; and 3) 1 M ethanolamine at pH 8.5 was injected for 800 s to block the remaining active carboxyl groups on the chip surface. After blocking, the instrument was equilibrated with 1×HBS-EP+buffer for 2 hours, and the final coupling level of Protein A was about 2000 RU.
# A multi-cycle kinetics mode was set at Biacore T200, and each cycle included antibody capture, analyte binding and chip regeneration. […] Finally, 10 mM glycine-hydrochloric acid at pH 1.5 (GE Healthcare, #BR-1003-54) was injected at the same flow rate for 30 s to regenerate the chip.
# The experimental results were analyzed using the Biacore T200 analysis software 2.0, with channel 1 subtracted as a reference channel and a 1:1 kinetic fitting model selected as an analysis model.
# [7] = molecular target: T3, B7-H4 (Acro Biosystems, #B74-H82E2); assay: BLI epitope competition; 1st Ab = row; competitor (2nd Ab) PR002418; inhibition of the 2nd Ab signal
# Protocol: (§2) Step one, acquisition of 100% signal of antibodies: B7-H4 (Acro Biosystems, #B74-H82E2-200 μg) was captured at a capture height of 0.25 nm using an SA sensor (Fortebio, #18-5019). The sensor was equilibrated in a buffer for 120 s and then immersed in each antibody diluted to 100 nM for 240 s, and the final signal of the antibody binding to B7-H4 was recorded as the 100% signal of the antibody. Step two, epitope competition experiment: B7-H4 was captured using an SA sensor at a capture height of 0.25 nm. The sensor was immersed in a primary antibody (at a concentration of 100 nM) for 240 s, and then the SA sensor was immersed in a mixture of the primary and secondary antibodies (both at a final concentration of 100 nM) for 240 s, and the difference in signals after immersion of the sensor in the antibody mixture was recorded as the signal of the antibody as the secondary antibody. The inhibition rate was calculated according to the following formula: […]
# [8] = molecular target: T3, B7-H4 (Acro Biosystems, #B74-H82E2); assay: BLI epitope competition; 1st Ab = row; competitor (2nd Ab) PR002421; inhibition of the 2nd Ab signal
# Protocol: as §2
# [9] = molecular target: T3, B7-H4 (Acro Biosystems, #B74-H82E2); assay: BLI epitope competition; 1st Ab = row; competitor (2nd Ab) Control antibody 1; inhibition of the 2nd Ab signal
# Protocol: as §2
# [10] = molecular target: T3, B7-H4 (Acro Biosystems, #B74-H82E2); assay: BLI epitope competition; 1st Ab = row; competitor (2nd Ab) Control antibody 2; inhibition of the 2nd Ab signal
# Protocol: as §2
# [11] = molecular target: T1, human B7H4 on the cell surface; assay: FACS on SK-BR-3 cells
# Protocol: as §1
# CD3 on human T cells [12] = molecular target: T4, CD3 on human T cells; assay: FACS on human T cells; EC50 printed as n.d., curve still rising at 100 nM
# Protocol: as §1
# [13] = molecular target: T1, human B7H4 on the cell surface; assay: FACS on SK-BR-3 cells; the printed number lies below the lowest concentration shown (0.03 nM)
# Protocol: as §1
# T4 sequence (P07766 23-207 limits assumed, chain 1 of 3): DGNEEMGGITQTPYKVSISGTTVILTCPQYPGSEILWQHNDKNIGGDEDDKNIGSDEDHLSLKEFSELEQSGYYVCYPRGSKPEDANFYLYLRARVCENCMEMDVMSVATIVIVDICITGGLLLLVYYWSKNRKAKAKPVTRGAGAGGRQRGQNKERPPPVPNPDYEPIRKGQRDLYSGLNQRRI
# T4 sequence (P04234 22-171 limits assumed, chain 2 of 3): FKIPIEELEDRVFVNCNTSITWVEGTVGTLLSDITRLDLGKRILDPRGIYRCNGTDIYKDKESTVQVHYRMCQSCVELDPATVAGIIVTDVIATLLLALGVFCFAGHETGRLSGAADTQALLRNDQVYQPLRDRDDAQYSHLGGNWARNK
# T4 sequence (P09693 23-182 limits assumed, chain 3 of 3): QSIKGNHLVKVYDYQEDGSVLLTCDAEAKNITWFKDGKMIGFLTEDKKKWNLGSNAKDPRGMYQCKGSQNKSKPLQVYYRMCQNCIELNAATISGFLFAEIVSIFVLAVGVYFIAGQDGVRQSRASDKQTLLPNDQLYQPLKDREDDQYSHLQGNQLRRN
binder,measurement,setting,value
B1,binding result,[1],binds
B2,EC50,CD3 on human T cells [2],7.5 nM
same,EC50,CD3 on human T cells [3],7.5 nM
same,EC50,CD3 on human T cells [4],6.1 nM
same,EC50,CD3 on human T cells [5],7.5 nM
B3,Kd,[6],4.45 nM
same,koff,[6],0.00116 s⁻¹
same,kon,[6],261000 M⁻¹ s⁻¹
same,Competitive inhibition rate (%),[7],4.49%
same,Competitive inhibition rate (%),[8],6.32%
same,Competitive inhibition rate (%),[9],96.6%
same,Competitive inhibition rate (%),[10],95.8%
B4,Maximum MFI,[11],183000
same,Maximum MFI,CD3 on human T cells [12],73000
same,EC50,[13],0.006 nM
